The record followed here is patent US20260167702A1 (Dana-Farber, published 2026).

Where two headings read alike, the source gives them in different places. Where only a bound is given, the exact number is not on record here.

A word on the Kd: it is the free concentration of one partner at which half of the binding sites on the other are occupied at equilibrium, for simple one-to-one binding. By koff is commonly meant the first-order rate constant of dissociation. Broadly, the kon is the rate constant with which the complex forms.

The target of assay [1] is T1, recombinant full length HA of A/Vietnam/1203/04 (H5-VN04) (influenza A virus A/Vietnam/1203/04 …).
Assay [2] addresses T1, recombinant full length HA of …. The source holds these as a separate data set.
Assay [3] concerns the target T2, recombinant full length HA of A/Perth/16/09 (H3-PE09) (influenza A virus A/Perth/16/09 (H3N2)).
For assay [4], the target named is full length HA of A/Vietnam/1203/04 (H5-VN04) expressed from pcDNA3.1 (on 293T cells and on pseudotyped … (influenza A virus A/Vietnam/1203/04)). Description: cell-based or functional assay.
Assay [5] deals with T1, recombinant full length HA of …. Description: BLI, IgG1 (legend of FIG. 15). (In general: BLI is a label-free optical method that tracks binding on a fibre tip over time.)
For assay [6] the target is unchanged. The assay can be described thus: BLI (Octet RED96), IgG1, recombinant HA.
The target in assay [7] is T2, recombinant full length HA of …. Description: BLI (Octet RED96), IgG1, recombinant HA.
Assay [8] shares this target. The assay can be described thus: BLI, IgG1 ('further experiments', FIGS. 15A and 15B).
Assay [9] concerns the target recombinant full length HA of A/mallard/Astrakhan/263/82 (H14-AS82) (influenza A virus …, UniProt P26136 18-568). Description: BLI, purified recombinant HAs; antibody format not stated here.

B1: 3I14 IgG1 (wild type) (antibody, V domains shown)
VH: QVQLLESGGGVVQPGRSLRLSCAASGFTFSNYGMHWVRQAPGKGLEWVAIISFDGSKKYYANSVKGRSTISRDNSKNTLSLQMNSLGPEDTALYYCAKLPSPYYFDSRFVWVAASAFHFWGQGILVTVSS
VL: NFMLTQPPSASGTPGQRVTISCSGSSSNIGGNTVHWFQQLPGTAPKLLIYTNSLRPSGVPDRFSGSKSGTSASLAISGLQSEDEADYYCAAWDDSLNGQVFGGGTKLTVL
As to B1, the Kd in assay [1] is > 1 nM; in [2], 1.02 nM; in assay [3], 0.263 nM; in assay [5], 1.15 nM; in [6], 1.02 nM; in [7], 0.263 nM. The results for the Kd in assay [8] and in [9] were 1.96 nM and < 0.1 nM, respectively. The koff in assay [2] amounted to 0.000383 s⁻¹; in [3], 3.99e-05 s⁻¹; in assay [6] it was 0.000387 s⁻¹; in assay [7], 3.99e-05 s⁻¹. Further, the kon was found to be 375000 M⁻¹ s⁻¹ in [2], 152000 M⁻¹ s⁻¹ in assay [3], 327000 M⁻¹ s⁻¹ in [6] and 152000 M⁻¹ s⁻¹ in assay [7]. Also, the “IC50, neutralization of H5-VN04 pseudovirus” value in assay [4] was 0.0816 µg/mL. Also, the “IC50, neutralization of pseudovirus” value in assay [4] is 2.14 µg/mL.
